Consider four molecules from US20200317768A1 (published 2020).

For orientation: koff means the first-order rate constant of dissociation.

Assay [1] concerns the target T1, GST-hMSTN 61-160aa (human, UniProt O14793 61-160).
T1 construct: As GST-hMSTN 1-100aa; also called fourth fragment; not shown: GST tag from the pGEX4.1 vector
T1 sequence: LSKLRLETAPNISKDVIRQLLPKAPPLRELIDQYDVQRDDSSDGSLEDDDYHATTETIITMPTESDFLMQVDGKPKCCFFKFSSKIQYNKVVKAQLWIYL
Put plainly: Western blot on GST tagged fragments. The source says: (§1) Fragments of the N-terminal propeptide coding region of human latent myostatin were cloned into a pGEX4.1 vector so as to produce GST tagged propeptide fragments of 100 amino acid each, with 80 amino acid overlap (FIG. 22A). Protein expression was induced in transformed BL21 competent cells with Overnight Express Autoinduction System (Merck Millipore) and protein was extracted using the BUGBUSTER® protein extraction reagent (Novagen).

For assay [2], the target named is T2, GST-hMSTN 81-180aa (human, UniProt A1C2U3 81-180 (Pongo pygmaeus entry)).
T2 construct: As GST-hMSTN 1-100aa; also called fifth fragment; not shown: GST tag from the pGEX4.1 vector
T2 sequence: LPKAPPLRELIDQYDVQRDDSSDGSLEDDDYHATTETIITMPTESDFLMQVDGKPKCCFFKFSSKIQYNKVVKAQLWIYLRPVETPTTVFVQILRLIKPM
The experiment in a line: Western blot on GST tagged fragments.
Source text: as §1
(In western blotting, separated proteins are transferred to a membrane and probed.)

The target in assay [3] is T3, GST-hMSTN 101-200aa (human, UniProt A1C2U3 101-200 (Pongo pygmaeus entry)).
T3 construct: As GST-hMSTN 1-100aa; also called sixth fragment; not shown: GST tag from the pGEX4.1 vector
T3 sequence: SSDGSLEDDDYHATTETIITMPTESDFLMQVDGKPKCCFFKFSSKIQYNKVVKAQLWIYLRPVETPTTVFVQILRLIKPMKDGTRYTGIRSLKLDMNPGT
The experiment in a line: Western blot on GST tagged fragments.
Source text: as §1

Assay [4] addresses T4, GST-hMSTN 141-241aa (human, UniProt A1C2U3 141-241 (Pongo pygmaeus entry)).
T4 construct: As GST-hMSTN 1-100aa; also called eighth fragment; not shown: GST tag from the pGEX4.1 vector
T4 sequence: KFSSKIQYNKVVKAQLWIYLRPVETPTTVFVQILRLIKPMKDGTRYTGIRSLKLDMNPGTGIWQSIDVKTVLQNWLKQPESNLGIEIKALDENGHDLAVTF
Put plainly: Western blot on GST tagged fragments.
Source text: as §1

Assay [5] addresses T5, GST-hMSTN 121-220aa (human, UniProt A1C2U3 121-220 (Pongo pygmaeus entry)).
T5 construct: As GST-hMSTN 1-100aa; also called seventh fragment; not shown: GST tag from the pGEX4.1 vector
T5 sequence: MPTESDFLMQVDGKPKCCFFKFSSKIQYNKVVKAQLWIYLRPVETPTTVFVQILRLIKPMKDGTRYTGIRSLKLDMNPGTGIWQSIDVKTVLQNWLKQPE
Put plainly: Western blot on GST tagged fragments.
Source text: as §1

Assay [6] addresses T6, cyno FcγRIIIaS extracellular domain with C-terminal His-tag (cynomolgus monkey, UniProt A3RFZ7 21-206 (rhesus entry)).
T6 construct: also called FcgRIIIaS; not shown: His-tag added to the C-terminus
Put plainly: SPR (BIACORE T200/4000), antibody captured, FcγR as analyte, 25 C. A general note: Surface plasmon resonance follows binding to a sensor surface in real time, without labels.

The target in assay [7] is T7, human FcγRIIIaV extracellular domain with C-terminal His-tag (human, UniProt P08637 17-208).
T7 construct: also called FcgRIIIaV; not shown: His-tag added to the C-terminus
T7 sequence (P08637 17-208 F176V): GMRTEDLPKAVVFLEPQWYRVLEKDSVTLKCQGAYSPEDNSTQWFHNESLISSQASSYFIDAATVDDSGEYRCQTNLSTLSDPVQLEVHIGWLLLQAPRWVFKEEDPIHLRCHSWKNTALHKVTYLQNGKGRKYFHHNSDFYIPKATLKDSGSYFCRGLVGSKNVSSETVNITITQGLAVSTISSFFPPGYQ
Described as above.

Assay [8] has as its target T8, Human latent myostatin (human, UniProt O14793 25-266; O14793 267-375).
T8 construct: Biotinylated in the ELISAs; also called human myostatin latent form
T8 sequence 1: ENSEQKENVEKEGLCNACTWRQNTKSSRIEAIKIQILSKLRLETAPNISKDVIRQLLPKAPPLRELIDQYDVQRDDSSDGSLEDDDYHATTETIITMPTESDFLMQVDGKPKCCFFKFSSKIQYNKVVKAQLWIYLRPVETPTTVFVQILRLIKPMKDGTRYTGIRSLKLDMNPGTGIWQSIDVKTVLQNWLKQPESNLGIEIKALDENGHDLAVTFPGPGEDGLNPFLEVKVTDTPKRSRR
T8 sequence 2: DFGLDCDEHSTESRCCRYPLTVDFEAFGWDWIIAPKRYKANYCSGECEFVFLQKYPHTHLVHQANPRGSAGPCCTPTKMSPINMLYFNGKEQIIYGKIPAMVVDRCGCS
Put plainly: SPR (BIACORE), additional dissociation phase at pH5.8 after dissociation at pH7.4. The protocol:
(§2) Each amino acid in the CDRs was individually mutated to histidine using In-Fusion HD Cloning Kit (Clontech Inc, or Takara Bio company) according to the manufacturer's instructions. […] All histidine-substituted variants were evaluated by a modified BIACORE® assay as compared to that described above. Briefly, an additional dissociation phase at pH5.8 was integrated into the BIACORE® assay immediately after the dissociation phase at pH7.4. This is to assess the pH-dependent dissociation between antibody (Ab) and antigen (Ag) from the complexes formed at pH7.4 as opposed to the corresponding dissociation at pH5.8. The dissociation rate at pH5.8 buffer was determined by processing and fitting data using the Scrubber 2.0 (BioLogic Software) curve fitting software.
(§3) Antibodies with a combination of these mutations in the CDRs were then generated.

For assay [9], the target named is T8, Human latent myostatin. Put plainly: SPR (BIACORE), additional dissociation phase at pH5.8 after dissociation at pH7.4, Scrubber 2.0 fit. The protocol: as §2, §3

T6 sequence (A3RFZ7 21-206): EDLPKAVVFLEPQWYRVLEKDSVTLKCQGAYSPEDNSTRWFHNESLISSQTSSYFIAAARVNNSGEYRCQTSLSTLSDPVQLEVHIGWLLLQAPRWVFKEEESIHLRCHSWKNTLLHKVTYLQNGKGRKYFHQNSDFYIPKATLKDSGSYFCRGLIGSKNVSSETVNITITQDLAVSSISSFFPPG

B1: MST1538 (antibody, human IgG1, kappa, V domains shown)
VH: QSLEESGGGLVKPGGTLTLTCKASGIDFSSYYYMCWVRQAPGKGLEWIACIYAGISGSTYYASWAKGRFTISKTSSTTVTLQMTSLTAADTATYFCARDPYHFDYGSLWGPGTLVTVSS
VL: ALVMTQTPASVSAAVGGTVTINCQASQSVYGGNELSWYQQEPGQPPKLLIYSASKLASGVPSRFKGSGSGTQFTLTISGVQCDDAAAYYCAGYRTYSDDDNAFGGGTKVEIKR
In the case of B1, the binding result in assay [1], in [2], in [3], in [4] and in [5] was “no binding” each time.

B2: MST1572 (antibody, human IgG1, kappa, V domains shown)
VH: QSVEESGGRLVTPGTPLTLTCTVSGFSLSSYAMSWVRQAPGKGLEWIGIIYGVGSTYYASWAKGRFTISKTSTTVDLKIASPTTEDTATYFCARDDYGWGYTNLWGPGTLVTVSS
VL: QVLTQTPSSVSAAVGGTVTINCQSSQSVYNNNYLAWFQQKPGQPPKLLIYDASKLASGVPSRFKGSGSGTQFTLTISGVQCDDAATYYCQGSYYSSGWYRAFGGGTKVEIKR
Regarding B2, the binding result in assay [1], in assay [2], in assay [3], in assay [4] and in [5] was “no binding” each time.

B3: M103205H795-MY009/M103202L889-SK1 (antibody, human IgG1, kappa)
heavy: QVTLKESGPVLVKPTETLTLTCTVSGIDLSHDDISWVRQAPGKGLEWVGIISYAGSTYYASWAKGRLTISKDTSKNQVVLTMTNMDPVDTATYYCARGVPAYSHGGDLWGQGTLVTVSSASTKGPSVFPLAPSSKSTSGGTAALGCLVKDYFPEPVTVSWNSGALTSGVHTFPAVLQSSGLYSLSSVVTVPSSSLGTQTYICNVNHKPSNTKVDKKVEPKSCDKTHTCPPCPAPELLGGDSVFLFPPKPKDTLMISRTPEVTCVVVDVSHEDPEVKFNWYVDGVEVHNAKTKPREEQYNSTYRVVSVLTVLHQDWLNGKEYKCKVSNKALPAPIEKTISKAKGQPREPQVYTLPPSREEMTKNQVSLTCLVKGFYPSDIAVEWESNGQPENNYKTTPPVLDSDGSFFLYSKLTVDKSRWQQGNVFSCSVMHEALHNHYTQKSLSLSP
light: DIVMTQSPATLSLSPGERATLSCTSSQSVYHANWLSWFQQKPGQPPKLLIYWASTLAYGVPSRFSGSGSGTDFTLTISSLQPEDAATYYCAGGYGGGRYAFGQGTKVEIKRTVAAPSVFIFPPSDEQLKSGTASVVCLLNNFYPREAKVQWKVDNALQSGNSQESVTEQDSKDSTYSLSSTLTLSKADYEKHKVYACEVTHQGLSSPVTKSFNRGEC
notes: SG1 with P238D (EU numbering); also called MS1032LO06-MY009; MS1032LO006-MY009
Consider B3, for which the binding result in assay [6] and in assay [7] was “binds” each time.

B4: Ab002 (M103205H001 / M103202L000) (antibody, human IgG1, kappa, V domains shown)
VH: QVTLKESGPVLVKPTETLTLTCTVSGIDLSHYDISWVRQAPGKGLEWVGIISYAGSTYYASWAKGRLTISKDTSKNQVVLTMTNMDPVDTATYYCARGVPAYSTGGDLWGQGTLVTVSS
VL: DIVMTQSPATLSLSPGERATLSCQSSQSVYDNNWLSWFQQKPGQPPKLLIYWASTLASGVPSRFSGSGSGTDFTLTISSLQPEDAATYYCAGGYGGGLYAFGQGTKVEIKR
notes: Histidine-substituted variant of MS1032LO00-SG1
For B4, in [8], the “fold faster dissociation rate at pH5.8 than the parental antibody Ab001” value is over 200 fold. Further, the koff in assay [9] worked out at 0.00609 s⁻¹.
